# According to patent US9340577B2, “HLA binding motifs and peptides and their uses” (priority 1992, dated 2016):
# Target: A2.1 HLA molecules (Homo sapiens, UniProt P04439, D140Y/D185E/D98H/E176V/E277Q/G131W/G231S/I119V/I121R/I166T/I218V/L300P/L318F/N151K/N90K/P208A/P217A/Q86G/Q94H/R138H/R169H/T345S)
# Format: binding
# Design: A*0201 / A2.1 Binding / A2 Bind. / A2 / A2.1 (binding capacity): scale not given here
Substance,A2 Bind.,A*0201,A2.1 relative binding (ratio of binding of test peptide relative to standard peptide),A2.1 Binding,A2.1 (binding capacity),A2
SLISDQLLM,0.0540,–,–,–,–,–
GLWIRTPPV,0.3600,–,–,–,–,–
SLYNTISVL [Peptide F136.03],–,0.0190,–,–,–,–
RLLRGLIRL,0.0370,–,–,–,–,–
YLLDLQEPV,0.2200,–,–,–,–,–
WLVTNGSYL,0.0180,–,–,–,–,–
SMHCKPEEV,–,–,0.018,–,–,–
TISGVLWQV [Peptide F124.08],–,0.1400,–,–,–,–
LLCLGWLWGM,0.0220,–,–,–,–,–
LMLQAGFFLV [listing 1 of 2 here],–,–,0.63,–,–,–
AMPRRVLHA,–,–,–,0.0014,–,–
ELKQTRVNL,–,–,–,0,–,–
LLSTTEWQV,0.0480,–,–,–,–,–
ILGFVFTLT,0.2600,–,–,–,–,–
GLWCVLFFV,0.4700,–,–,0.47,–,–
RMLTIPQSV,–,–,0.058,–,–,–
WLLRGTSFV,0.1000,–,–,–,–,–
FLRVQQKAL,–,–,–,0.0002,–,–
LLGDNQIMV,–,–,0.043,–,–,–
SILSPFLPLL,–,–,0.0025,–,–,–
IISCTCPTV,0.0190,–,–,–,–,–
VVSYVNVNM,0.0100,–,–,–,–,–
LLWFHISCLI,0.0130,–,–,–,–,–
LMIRGVLEV,0.4500,–,–,0.45,–,–
LMCRYTPRL,–,–,–,0.0055,–,–

Substance,A2 Bind.,A*0201,A2.1 relative binding (ratio of binding of test peptide relative to standard peptide),A2.1 Binding,A2.1 (binding capacity),A2
LIISCSCPTV,0.0290,–,–,–,–,–
ILGFVFTLTV,0.0550,–,–,–,–,–
RLLLTSLFFL,–,–,–,0.34,–,–
SMLSPFLPLV [listing 1 of 2 here],–,–,0.97,–,–,–
LLFNILGWV [Peptide F127.09],–,1.7000,–,–,–,–
LLEDWGPCA,0.0180,–,–,–,–,–
YALTVVWLL,0.0415,–,–,–,–,–
LMLQAGFFLV [listing 2 of 2 here],0.6300,–,–,–,–,–
RLSWPKFAV,–,–,0.0072,–,–,–
YMLDLQPET,1.4000,–,1.4,–,–,–
RVSWPKFAV,–,–,0.0028,–,–,–
GLRDCTMLV [Peptide F124.11],–,0.0120,–,–,–,–
SLYNTVSTL [Peptide F136.04],–,0.0320,–,–,–,–
MLDLQPETT,0.0130,–,–,–,–,–
SLYADSPSV,0.3500,–,–,–,–,–
RMRGTFSAPL,0.0110,–,–,–,–,–
SMLSPFLPLV [listing 2 of 2 here],0.9700,–,–,–,–,–
1.0187 (HLLVGSSBL) [Peptide 1.0187],–,–,–,0.0018,–,–
ILCWGELMTL,0.1900,–,–,–,–,–
ALASCMGLI,0.0110,–,–,–,–,–
SLMAFTASV [Peptide F124.10],–,0.1200,–,–,–,–
NLGNLNVSV,0.0160,–,–,–,–,–
DMLGRVFFV,0.0110,–,–,0.011,–,–
KLVALGVNAV [Peptide F124.12],–,0.0200,–,–,–,–
LMLLDYQGMV,–,–,0.0087,–,–,–

Substance,A2 Bind.,A*0201,A2.1 relative binding (ratio of binding of test peptide relative to standard peptide),A2.1 Binding,A2.1 (binding capacity),A2
LMDLLMFST,0.0460,–,–,–,–,–
KLVSLGVNAV [Peptide F124.23],–,0.0150,–,–,–,–
1.0876 (FLCILLLCL) [Peptide 1.0876],–,–,–,0.0007,–,–
WMWFPSVLL,0.0360,–,–,0.036,–,–
FLGLSPTVWV [listing 1 of 2 here],–,–,0.030,–,–,–
SLDSWWTSV,–,–,0.10,–,–,–
TLATWVGVNL,0.5700,–,–,–,–,–
LMLGTLEEV,–,–,0.13,–,–,–
LLLCRLPFL,0.4200,–,–,0.42,–,–
WLKLLRDAL,–,–,–,0,–,–
LLLYYDYSL,0.2800,–,–,0.28,–,–
VTTEVAFGL,0.0360,–,–,–,–,–
CLFHIVNLI,0.2100,–,–,–,–,–
LLWWITILL,0.4900,–,–,0.49,–,–
1.0500 (IMAKNBVFCV) [Peptide 1.0500],–,–,–,–,0.0088,–
LLALLSCLTI,–,–,–,–,–,0.0340
RLLTSLFFL,0.3400,–,–,–,–,–
TLRMSSKAV,–,–,–,0.0001,–,–
NLWVTVYYGV,0.0160,–,–,–,–,–
AMGLVCVQV,–,–,0.012,–,–,–
YLLPRRGPRL,–,–,–,–,–,0.0730
LLGRNSFAV,0.0420,–,–,–,–,–
YLPSALNPV,–,–,0.32,–,–,–
FLGLSPTVWV [listing 2 of 2 here],0.0300,–,–,–,–,–
LLFFWLDRSV,0.6000,–,–,–,–,–
